Tests used:
Assay type in all cases: cell-based
[1] = test system: Pseudomonas sp. Strain 2881; test: Titration of ConA against bacterial suspension, aggregate size measured; conditions: within 5.0% S.E.
Protocol: Aggregates of different size were constructed by titrating cona against suspensions of bacteria and observing the formation of aggregates. These were visible by eye as well as by optical microscope (FIG. 1).
Aggregate size was measured. A parabolic relationship between the ratio of ConA and bacterial density was observed (Table 3). […] This hypothesis reflects that established for antibody:antigen precipitation reactions.
Within an optimal range of […] and 0.6 mg/ml ConA, bacterial aggregates of 10 to >100 μm diameter could be reproducibly formed with a lectin excess that enabled further bacteria to be sequestered to the surface of the aggregate. The aggregates could be readily disassociated by the addition of approximately 50 mM maltose, glucose or sucrose to ConA, followed by 30s of gentle pipetting. This is ideal for the accurate enumeration of viable bacteria based upon CFU measurement on nutrient agar.

C. freundii = test: Lectin aggregation of bacterial cells (microtitre wells, semi-quantitative score); design: key: Where the addition of lectins did not cause the aggregation of cells, a score of “0” was assigned; Lectins that caused cellular-aggregation to give small flocs in a turbid suspension were given a score of “+”; A score of “++” was given to lectin-cell aggregate mixes that resulted in large aggregates seen by eye in a turbid suspension; Lectins that caused cellular aggregation to give easily visible aggregates in a clear solution were given a score of “+++”; conditions: cells O.D. 0.5 at 650 nm
Protocol: (§1) Assay approach: Six lectins were chosen to discover their suitability for the aggregation of different species of bacteria. These were Concanavalin A, Lentil lectin, Pseudomonas aeruginosa lectin, peanut lectin, Limulus polyphemus lectin and wheat germ lectin.
(§2) The ability of the lectins to aggregate bacterial cells was studied by mixing cells at an O.D. of 0.5 at 650 nm with different lectins at different concentrations. The extent of aggregation was determined by a semi-quantitative approach. […] Lectins that caused cellular-aggregation to give small flocs in a turbid suspension were given a score of “+”. […] Lectins that caused cellular aggregation to give easily visible aggregates in a clear solution were given a score of “+++”.

K. oxytoca = test: as above; design: key: Where the addition of lectins did not cause the aggregation of cells, a score of “0” was assigned; Lectins that caused cellular-aggregation to give small flocs in a turbid suspension were given a score of “+”; A score of “++” was given to lectin-cell aggregate mixes that resulted in large aggregates seen by eye in a turbid suspension; Lectins that caused cellular aggregation to give easily visible aggregates in a clear solution were given a score of “+++”; conditions: cells O.D. 0.5 at 650 nm
Protocol: as §1, §2

S. plymuthica = test: as above; design: key: Where the addition of lectins did not cause the aggregation of cells, a score of “0” was assigned; Lectins that caused cellular-aggregation to give small flocs in a turbid suspension were given a score of “+”; A score of “++” was given to lectin-cell aggregate mixes that resulted in large aggregates seen by eye in a turbid suspension; Lectins that caused cellular aggregation to give easily visible aggregates in a clear solution were given a score of “+++”; conditions: cells O.D. 0.5 at 650 nm
Protocol: as §1, §2

E. coli C600 (K12) = test: as above; design: key: Where the addition of lectins did not cause the aggregation of cells, a score of “0” was assigned; Lectins that caused cellular-aggregation to give small flocs in a turbid suspension were given a score of “+”; A score of “++” was given to lectin-cell aggregate mixes that resulted in large aggregates seen by eye in a turbid suspension; Lectins that caused cellular aggregation to give easily visible aggregates in a clear solution were given a score of “+++”; conditions: cells O.D. 0.5 at 650 nm
Protocol: as §1, §2

[2] = test system: taxonomically distinct species of bacteria; test: Lectins tested for potential to construct bacterial aggregates
Description: We have selected the lectin Concanavalin A (ConA) as the most preferred (Sigma, Poole, Dorset, UK). Other lectins tested for their potential in the present invention were Wheat Germ Lectin (WGA), lectin from Limulus polyphemus and Peanut Agglutinin (PNA). […] However, ConA was the only lectin that strongly reacted with, and aggregated, over 15 taxonomically distinct species of bacteria. ConA was subsequently deemed the most preferable for use. However, any lectin is suitable for the invention as long as the lectin is capable of agglutinating the desired species.
as §1, §2

Row | Molecule | extent of aggregation (score) (C. freundii; lectin 1 × 10^−1 mg/mL) | extent of aggregation (score) (C. freundii; lectin 1 × 10^−2 mg/mL) | extent of aggregation (score) (C. freundii; lectin 1 × 10^−3 mg/mL) | extent of aggregation (score) (K. oxytoca; lectin 1 × 10^−1 mg/mL) | extent of aggregation (score) (K. oxytoca; lectin 1 × 10^−2 mg/mL) | extent of aggregation (score) (K. oxytoca; lectin 1 × 10^−3 mg/mL) | extent of aggregation (score) (S. plymuthica; lectin 1 × 10^−1 mg/mL) | extent of aggregation (score) (S. plymuthica; lectin 1 × 10^−2 mg/mL) | extent of aggregation (score) (S. plymuthica; lectin 1 × 10^−3 mg/mL) | extent of aggregation (score) (E. coli C600 (K12); lectin 1 × 10^−1 mg/mL) | extent of aggregation (score) (E. coli C600 (K12); lectin 1 × 10^−2 mg/mL) | extent of aggregation (score) (E. coli C600 (K12); lectin 1 × 10^−3 mg/mL) | further results
1 | Concanavalin A | +++ | + | + | ++ | + | 0 | + | + | + | +++ | +++ | + | Size of aggregate ([1]; Amount of ConA 0.001 mg/ml): No aggregation; Size of aggregate ([1]; Amount of ConA 0.01 mg/ml): 11.2 μm; Size of aggregate ([1]; Amount of ConA 0.05 mg/ml): 53.4 μm; Size of aggregate ([1]; Amount of ConA 0.1 mg/ml): 106.7 μm; Size of aggregate ([1]; Amount of ConA 0.2 mg/ml): 91.2 μm; Size of aggregate ([1]; Amount of ConA 0.4 mg/ml): 73.1 μm; Size of aggregate ([1]; Amount of ConA 0.6 mg/ml): 55.4 μm; Size of aggregate ([1]; Amount of ConA 0.8 mg/ml): No aggregation; Size of aggregate ([1]; Amount of ConA 1.0 mg/ml): No aggregation; taxonomically distinct species of bacteria strongly reacted with, and aggregated [2]: over 15
2 | Lentil lectin (protein, UniProt P02870 31-210; P02870 218-269, looked up) Lectin beta chain: TETTSFSITKFSPDQKNLIFQGDGYTTKGKLTLTKAVKSTVGRALYSTPIHIWDRDTGNVANFVTSFTFVIDAPSSYNVADEFTFFIAPVDTKPQTGGGYLGVFNSKEYDKTSQTVAVEFDTFYNAAWDPSNKERHIGIDVNSIKSVNTKSWNLQNGERANVVIAFNAATNVLTVTLTYP Lectin alpha chain: VTSYTLNEVVPLKDVVPEWVRIGFSATTGAEFAAHEVHSWSFHSELGGTSSS | +++ | + | + | ++ | + | 0 | + | + | + | +++ | ++ | + | 

— patent US20040248275A1, “Engineered bacterial aggregates” (priority 2003, published 2004)
